T1: Human nectin-4 ECD-6His (TNT-175) (human, UniProt Q96NY8 32-349)
T1 construct: the entry holds the extracellular domain with the C-terminal 6His tag
T1 sequence: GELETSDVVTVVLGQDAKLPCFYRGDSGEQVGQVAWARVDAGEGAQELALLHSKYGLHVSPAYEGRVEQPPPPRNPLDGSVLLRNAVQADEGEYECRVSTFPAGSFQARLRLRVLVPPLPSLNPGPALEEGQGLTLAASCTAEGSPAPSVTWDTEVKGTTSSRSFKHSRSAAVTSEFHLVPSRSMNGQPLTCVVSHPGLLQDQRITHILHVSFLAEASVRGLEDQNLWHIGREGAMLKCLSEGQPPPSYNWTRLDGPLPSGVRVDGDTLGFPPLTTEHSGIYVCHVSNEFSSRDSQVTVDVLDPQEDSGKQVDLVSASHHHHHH

T2: human nectin-4 on cells (human, UniProt Q96NY8 32-510)
T2 construct: whole, on cells; also called PVRL4
T2 sequence (looked up): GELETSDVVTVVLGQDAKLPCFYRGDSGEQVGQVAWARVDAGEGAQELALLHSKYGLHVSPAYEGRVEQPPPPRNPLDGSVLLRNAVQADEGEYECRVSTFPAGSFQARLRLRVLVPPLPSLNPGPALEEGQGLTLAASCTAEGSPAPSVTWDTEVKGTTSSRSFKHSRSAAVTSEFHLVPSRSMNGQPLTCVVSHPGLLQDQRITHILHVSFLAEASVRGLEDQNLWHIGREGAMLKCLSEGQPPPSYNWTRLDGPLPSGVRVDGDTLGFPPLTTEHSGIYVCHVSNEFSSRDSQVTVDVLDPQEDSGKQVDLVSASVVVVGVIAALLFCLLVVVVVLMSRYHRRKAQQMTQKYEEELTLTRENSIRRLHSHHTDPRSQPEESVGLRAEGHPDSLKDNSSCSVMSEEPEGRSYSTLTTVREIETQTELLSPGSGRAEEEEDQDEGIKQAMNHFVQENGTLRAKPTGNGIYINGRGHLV


Key:
[1] = target: T1, Human nectin-4 ECD-6His (TNT-175); assay: competition ELISA; nectin-4 ECD premixed with TNT202, captured by the coat antibody; % of signal without premix antibody
Procedure: (§1) Competition experiments of nectin-4 antibodies. ELISA plates were coated overnight at 4° C. with goat anti-mouse IgG at […] in PBS. […] As positive control, nectin-4 was diluted at same concentrations without a premix antibody. Two wells per plate were allocated for diluent only as negative/background control. Plates were washed as previously, 50 μL/well of premix was added to each plate and incubated for one hour. Plates were washed then incubated at room temperature for one hour with Rabbit anti 6× HIS HRP diluted 1:4,000 in diluent. Plates were washed once more and incubated at room temperature for 20 minutes with 50 μL/well of ABTS substrate. […] Binding was measured as an Optical Density (O.D.) value normalized to background and calculated as a percentage of positive control at the lowest nectin-4 dilution for greatest resolution.

human nectin-4 on cells = target: T2, human nectin-4 on cells; assay: flow cytometry MFI, MNK74 (nectin-4 positive) over AGS (negative)
Procedure: Cell binding of nectin-4 antibodies. Cell binding of the nectin-4 antibodies was also assessed. MNK74 (nectin-4 positive) and AGS (nectin-4 negative) cells were obtained from ATCC and cultured according to their protocols. Cells were detached with TrypLE (Gibco) and washed by centrifugation for five minutes at 400×g with FACS buffer (PBS+2% FBS). Cells were resuspended in FACS buffer, plated in 96-well format (0.25 e6/well) then pelleted by centrifugation for five minutes at 400×g. Cells were stained at 4° C. in Fixable Viability Dye eFluor 506 (eBioscience) diluted 1:4,000 in PBS. […] Cells were centrifuged, washed once in FACS buffer and stained at 4° C. with Goat F(ab′)₂ anti-Mouse IgG APC (Southern Biotech) diluted 1:400 in FACS buffer for 30 minutes or appropriate anti-human IgG. Cells were centrifuged, washed twice and fixed in 0.5% paraformaldehyde. Cells were analyzed on Attune NxT Flow Cytometer (Thermo Fisher), with subsequent data analysis by Flowjo 10.7 (BD). Dead cells were excluded by gating on the eFluor 506-negative population. […] Binding was assessed by median fluorescent intensity.

[2] = target: T1, Human nectin-4 ECD-6His (TNT-175); assay: competition ELISA; nectin-4 ECD premixed with TNT211, captured by the coat antibody; % of signal without premix antibody
Procedure: as §1

[3] = target: T1, Human nectin-4 ECD-6His (TNT-175); assay: competition ELISA; nectin-4 ECD premixed with TNT204, captured by the coat antibody; % of signal without premix antibody
Procedure: as §1

[4] = target: T1, Human nectin-4 ECD-6His (TNT-175); assay: competition ELISA; nectin-4 ECD premixed with TNT208, captured by the coat antibody; % of signal without premix antibody
Procedure: as §1

[5] = target: T1, Human nectin-4 ECD-6His (TNT-175); assay: competition ELISA; nectin-4 ECD premixed with TNT207, captured by the coat antibody; % of signal without premix antibody
Procedure: as §1

[6] = target: T1, Human nectin-4 ECD-6His (TNT-175); assay: competition ELISA; nectin-4 ECD premixed with TNT203, captured by the coat antibody; % of signal without premix antibody
Procedure: as §1

[7] = target: T1, Human nectin-4 ECD-6His (TNT-175); assay: competition ELISA; nectin-4 ECD premixed with TNT205, captured by the coat antibody; % of signal without premix antibody
Procedure: as §1

[8] = target: T1, Human nectin-4 ECD-6His (TNT-175); assay: competition ELISA; nectin-4 ECD premixed with TNT212, captured by the coat antibody; % of signal without premix antibody
Procedure: as §1

[9] = target: T1, Human nectin-4 ECD-6His (TNT-175); assay: competition ELISA; nectin-4 ECD premixed with TNT201, captured by the coat antibody; % of signal without premix antibody
Procedure: as §1

[10] = target: T1, Human nectin-4 ECD-6His (TNT-175); assay: competition ELISA; nectin-4 ECD premixed with TNT206, captured by the coat antibody; % of signal without premix antibody
Procedure: as §1

[11] = target: T1, Human nectin-4 ECD-6His (TNT-175); assay: competition ELISA; nectin-4 ECD premixed with TNT210, captured by the coat antibody; % of signal without premix antibody
Procedure: as §1

[12] = target: T1, Human nectin-4 ECD-6His (TNT-175); assay: competition ELISA; nectin-4 ECD premixed with TNT209, captured by the coat antibody; % of signal without premix antibody
Procedure: as §1

[13] = target: T1, Human nectin-4 ECD-6His (TNT-175); assay: SPR ProteOn, mAb on protein A
Procedure: Initial testing of binding of nectin-4 antibodies to nectin-4. […] Biotinylated protein A (15 μg/mL) was immobilized to the surface of an NLC chip. 30 nM of purified mAb supernatant was diluted in PBS-T and captured over the protein A surface. Serial dilutions of human nectin-4 were injected over the mAb-coated chips, and binding kinetics were determined. Chips were regenerated using 4:1 v/v of IgG elution butter/4M NaCl.

% of Positive [1] | Fold-change of binding to MNK74 compared to control AGS (human nectin-4 on cells) | % of Positive [2] | % of Positive [3] | % of Positive [4] | % of Positive [5] | % of Positive [6] | % of Positive [7] | % of Positive [8] | % of Positive [9] | % of Positive [10] | % of Positive [11] | % of Positive [12] | Kd [13] | koff [13] | kon [13] | Binder
3.1% | 4.5 fold | 17.5% | 2.9% | 2.3% | 1.5% | 23.3% | 36.9% | 2.2% | 1.1% | 6% | 1.1% | 20.5% | 9.14 nM | 0.00294 s⁻¹ | 322000 M⁻¹ s⁻¹ | TNT-192 (antibody, mouse IgG2a, kappa) heavy: EVQLLESGGGVVQPGRSLRLSCAASGFTFSSYGMHWVRQAPGKGLEWVAVISYDGSNKYYADSVKGRFTISRDNSKNTLYLQMNSLRAEDTAVYYCAKDYGYNWNFFDYWGQGTLVTVSSAKTTAPSVYPLAPVCGDTTGSSVTLGCLVKGYFPEPVTLTWNSGSLSSGVHTFPAVLQSDLYTLSSSVTVTSSTWPSQSITCNVAHPASSTKVDKKIEPRGPTIKPCPPCKCPAPNLLGGPSVFIFPPKIKDVLMISLSPIVTCVVVDVSEDDPDVQISWFVNNVEVHTAQTQTHREDYNSTLRVVSALPIQHQDWMSGKEFKCKVNNKDLPAPIERTISKPKGSVRAPQVYVLPPPEEEMTKKQVTLTCMVTDFMPEDIYVEWTNNGKTELNYKNTEPVLDSDGSYFMYSKLRVEKKNWVERNSYSCSVVHEGLHNHHTTKSFSRTPGRPQGFGPP light: DIVMTQSPSSLSASVGDRVTITCRASQGISNYLAWYQQKPGKVPKLLIYAASTLQSGVPSRFSGSGSGTDFTLTISSLQPEDVATYYCQKYNSAPYTFGQGTKVEIKRADAAPTVSIFPPSSEQLTSGGASVVCFLNNFYPKDINVKWKIDGSERQNGVLNSWTDQDSKDSTYSMSSTLTLTKDEYERHNSYTCEATHKTSTSPIVKSFNRNEC
3% | 5.2 fold | 6% | 1.9% | 2.4% | 1.6% | 17% | 8.4% | 3.7% | 2.2% | 3.1% | 2.1% | 5.1% | 3.73 nM | 0.00837 s⁻¹ | 2.24e+06 M⁻¹ s⁻¹ | TNT-193 (antibody, mouse IgG2a, kappa) heavy: QVQLQESGPGLVKPSGTLSLTCTVSGGSISSGGYYWAWIRQPPGKGLEWIGSIYYTGSTYYNPSLKSRVTIYVDTSKNQFSLKLSSVTAADTAVYYCARDPFPEPPDAFDIWGQGTMVTVSSAKTTAPSVYPLAPVCGDTTGSSVTLGCLVKGYFPEPVTLTWNSGSLSSGVHTFPAVLQSDLYTLSSSVTVTSSTWPSQSITCNVAHPASSTKVDKKIEPRGPTIKPCPPCKCPAPNLLGGPSVFIFPPKIKDVLMISLSPIVTCVVVDVSEDDPDVQISWFVNNVEVHTAQTQTHREDYNSTLRVVSALPIQHQDWMSGKEFKCKVNNKDLPAPIERTISKPKGSVRAPQVYVLPPPEEEMTKKQVTLTCMVTDFMPEDIYVEWTNNGKTELNYKNTEPVLDSDGSYFMYSKLRVEKKNWVERNSYSCSVVHEGLHNHHTTKSFSRTPGRPQGFGPP light: not shown
4.8% | 5 fold | 24.6% | 4.5% | 5.3% | 2.5% | 32.7% | 54.8% | 3% | 1.5% | 11.4% | 2.4% | 30.4% | 4.3 nM | 0.000983 s⁻¹ | 229000 M⁻¹ s⁻¹ | TNT-191 (antibody, mouse IgG2a, kappa) heavy: EVQLLESGGGVVQPGRSLRLSCAASGFTFSSYGMHWVRQAPGKGLEWVAVISYDGSNKYYADSVKGRFTISRDNSKNTLYLQMNSLRAEDTAVYYCAKSSYYDYVWGSYRYTDAFDIWGQGTMVTVSSAKTTAPSVYPLAPVCGDTTGSSVTLGCLVKGYFPEPVTLTWNSGSLSSGVHTFPAVLQSDLYTLSSSVTVTSSTWPSQSITCNVAHPASSTKVDKKIEPRGPTIKPCPPCKCPAPNLLGGPSVFIFPPKIKDVLMISLSPIVTCVVVDVSEDDPDVQISWFVNNVEVHTAQTQTHREDYNSTLRVVSALPIQHQDWMSGKEFKCKVNNKDLPAPIERTISKPKGSVRAPQVYVLPPPEEEMTKKQVTLTCMVTDFMPEDIYVEWTNNGKTELNYKNTEPVLDSDGSYFMYSKLRVEKKNWVERNSYSCSVVHEGLHNHHTTKSFSRTPGRPQGFGPP light: EIVLTQSPATLSLSPGERATLSCRASQSVSSSYLAWYQQKPGQAPRLLIYGASSRATGIPDRFSGSGSGTDFTLTISRLEPEDFAVYYCQQYNNWWTFGQGTKVDIKRADAAPTVSIFPPSSEQLTSGGASVVCFLNNFYPKDINVKWKIDGSERQNGVLNSWTDQDSKDSTYSMSSTLTLTKDEYERHNSYTCEATHKTSTSPIVKSFNRNEC

— US20240382610A1 (TALLAC THERAPEUTICS, published 2024)
